Experimental data published in patent US20250340631A1 (HARBOUR BIOMED SHANGHAI, published 2025).
Read-outs that look alike come from different tables or passages of the source.

T1: human CLDN2 (human, UniProt P57739 1-230)
T1 construct: whole, on cells; also called hCLDN2
T1 sequence (looked up): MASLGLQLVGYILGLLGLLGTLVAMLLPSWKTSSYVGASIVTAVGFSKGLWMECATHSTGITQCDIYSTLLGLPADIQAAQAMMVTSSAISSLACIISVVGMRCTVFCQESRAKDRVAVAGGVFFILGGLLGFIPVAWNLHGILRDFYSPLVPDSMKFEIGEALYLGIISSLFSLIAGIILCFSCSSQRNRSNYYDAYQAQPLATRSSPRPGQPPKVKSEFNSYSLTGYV


Columns and labels:
human CLDN18.2 [1] = target: T2, human CLDN18.2 (human); assay: FACS on NUGC4_D8 cells
T2 construct: the HEK293 line was made with a GenScript plasmid; also called hCLDN18.2
Protocol: (§1) Antibodies were assayed for binding affinity by FACS. Test cells include HEK293/hCLDN18.2, HEK293/hCLDN18.1, NUGC4_D8 and Jurkat cells. […] The cell density was adjusted to 10⁶ cells/mL, and 50 μL of the cell suspension was added to each well of a 96-well plate. Antibodies were diluted to different concentrations with FACS buffer, and 50 μL of the antibody dilution was added to each well of the 96-well plate. After 2 h of incubation at 4° C., the plate was washed twice with FACS buffer. […] After 1 h of incubation at 4° C., the plate was washed twice with FACS buffer. The cells were resuspended in fixative solution, and then the fluorescence of the cells was monitored using an FACS instrument (ACEA NovoCyte).

[2] = target: CLDN18.2 of SNU620 cells (methionine to leucine at amino acid 149) (human, UniProt P56856-2 1-261); assay: cell-based or functional assay
human CLDN18.2 [3] = target: T2, human CLDN18.2; assay: cell-based or functional assay
[4] = target: T3, human CD3 on Jurkat cells (human, UniProt P07766 23-207); assay: FACS on Jurkat cells (CD3)
T3 construct: whole, on cells; on cells it stands in the whole CD3/TCR complex; also called CD3-expressing cells
Protocol: as §1

human CLDN18.2 [5] = target: T2, human CLDN18.2; assay: FACS on HEK293/hCLDN18.2 cells
Protocol: as §1

[6] = target: T3, human CD3 on Jurkat cells; assay: FACS on Jurkat cells (CD3); remark: listed apart in the source
Protocol: as §1

human CLDN2 = target: T1, human CLDN2; assay: FACS on HEK293 cells transiently expressing human CLDN2
Protocol: Antibodies were assayed for binding affinity to human CLDN18.2 paralogous proteins by FACS (ACEA NovoCyte). CLDN1, CLDN2, CLDN3, CLDN4, CLDN6 and CLDN9 genes of the human CLDN18.2 paralogous family were transiently transfected into HEK293 cells. […] The cell density was adjusted to 10⁶ cells/mL, and 50 μL of the cell suspension was added to each well of a 96-well plate. An antibody was diluted to 60 nM with FACS buffer, and 50 μL of the antibody dilution was added to each well of the 96-well plate. After 2 h of incubation at 4° C., the plate was washed twice with FACS buffer. Then, an FACS buffer containing a secondary antibody was added. After 1 h of incubation at 4° C., the plate was washed twice with FACS buffer. The cells were resuspended in fixative solution, and run FACS.

T3 sequence (P07766 23-207): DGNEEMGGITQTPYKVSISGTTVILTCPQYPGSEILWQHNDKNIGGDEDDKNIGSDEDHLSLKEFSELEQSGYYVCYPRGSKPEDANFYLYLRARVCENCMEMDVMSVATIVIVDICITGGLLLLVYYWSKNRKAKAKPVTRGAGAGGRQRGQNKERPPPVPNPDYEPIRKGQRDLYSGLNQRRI
Chain of CLDN18.2 of SNU620 cells (methionine to leucine at amino acid 149) (P56856 other isoform, or with tags, fused parts or gaps limits assumed): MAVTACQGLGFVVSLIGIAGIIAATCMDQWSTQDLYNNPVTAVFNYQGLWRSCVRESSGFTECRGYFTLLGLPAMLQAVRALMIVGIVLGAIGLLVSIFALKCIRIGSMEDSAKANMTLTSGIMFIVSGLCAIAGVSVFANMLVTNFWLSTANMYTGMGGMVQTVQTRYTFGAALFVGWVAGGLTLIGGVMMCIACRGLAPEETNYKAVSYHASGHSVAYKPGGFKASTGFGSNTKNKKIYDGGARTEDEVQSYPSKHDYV

Row | Binder | EC50 (human CLDN18.2 [1]) [nM] | binding result [6] | further results
1 | PR007081 (bispecific antibody, human IgG1, lambda, structure 1; CD3 Fab from PR003886, CLDN18.2 VH from PR007242; AAA) EVQLVESGGGLVQPGGSLRLSCAASGFTFSSYWMHWVRQVPGKGLVWVSRINFDSSRTIYADSVKGRFTISRDNAKNTLYLQMNSLRAEDTAVYYCARGEDHDILTGYPIRGQGTTVTVSSGGGGSGGGGSGGGGSEVQLVESGGGLVQPGGSLRLSCAASGFTFSSYWMHWVRQVPGKGLVWVSRINFDSSRTIYADSVKGRFTISRDNAKNTLYLQMNSLRAEDTAVYYCARGEDHDILTGYPIRGQGTTVTVSSASEPKSSDKTHTCPPCPAPEAAGAPSVFLFPPKPKDTLMISRTPEVTCVVVDVSHEDPEVKFNWYVDGVEVHNAKTKPREEQYNSTYRVVSVLTVLHQDWLNGKEYKCKVSNKALPAPIEKTISKAKGQPREPQVCTLPPSREEMTKNQVSLSCAVKGFYPSDIAVEWESNGQPENNYKTTPPVLDSDGSFFLVSKLTVDKSRWQQGNVFSCSVMHEALHNHYTQKSLSLSPGK heavy: EVQLVESGGGLVQPGGSLKLSCAASGFTFSTYAMNWVRQASGKGLEWVGRIRSKYNNYATYYADSVKDRFTISRDDSKNTAYLQMNSLKTEDTAVYYCTRHGNFGNSYVSWFAYWGQGTLVTVSSASTKGPSVFPLAPSSKSTSGGTAALGCLVKDYFPEPVTVSWNSGALTSGVHTFPAVLQSSGLYSLSSVVTVPSSSLGTQTYICNVNHKPSNTKVDKKVEPKSCDKTHTCPPCPAPEAAGAPSVFLFPPKPKDTLMISRTPEVTCVVVDVSHEDPEVKFNWYVDGVEVHNAKTKPREEQYNSTYRVVSVLTVLHQDWLNGKEYKCKVSNKALPAPIEKTISKAKGQPREPQVYTLPPCREEMTKNQVSLWCLVKGFYPSDIAVEWESNGQPENNYKTTPPVLDSDGSFFLYSKLTVDKSRWQQGNVFSCSVMHEALHNHYTQKSLSLSPGK light: QAVVTQEPSLTVSPGGTVTLTCRSSTGAVTTSNYANWVQQKPGQAPRGLIGGTNKRAPWTPARFSGSLLGDKAALTLLGAQPEDEAEYFCALWYSNLWVFGGGTKLTVLGQPKAAPSVTLFPPSSEELQANKATLVCLISDFYPGAVTVAWKADSSPVKAGVETTTPSKQSNNKYAASSYLSLTPEQWKSHRSYSCQVTHEGSTVEKTVAPTECS | 49.3 | binds | –
2 | PR007080 (bispecific antibody, human IgG1, lambda, structure 1; CD3 Fab from PR003886, CLDN18.2 VH from PR007244; AAA) EVQLVESGGGLVQPGGSLRLSCAASGFTFSSYWMHWVRQVPGKGLVWVSRIDSRGSRTIYADSVKGRFTISRDNAKNTLYLQMNSLRAEDTAVYYCARGEDHDILTGYPIRGQGTTVTVSSGGGGSGGGGSGGGGSEVQLVESGGGLVQPGGSLRLSCAASGFTFSSYWMHWVRQVPGKGLVWVSRIDSRGSRTIYADSVKGRFTISRDNAKNTLYLQMNSLRAEDTAVYYCARGEDHDILTGYPIRGQGTTVTVSSASEPKSSDKTHTCPPCPAPEAAGAPSVFLFPPKPKDTLMISRTPEVTCVVVDVSHEDPEVKFNWYVDGVEVHNAKTKPREEQYNSTYRVVSVLTVLHQDWLNGKEYKCKVSNKALPAPIEKTISKAKGQPREPQVCTLPPSREEMTKNQVSLSCAVKGFYPSDIAVEWESNGQPENNYKTTPPVLDSDGSFFLVSKLTVDKSRWQQGNVFSCSVMHEALHNHYTQKSLSLSPGK heavy: EVQLVESGGGLVQPGGSLKLSCAASGFTFSTYAMNWVRQASGKGLEWVGRIRSKYNNYATYYADSVKDRFTISRDDSKNTAYLQMNSLKTEDTAVYYCTRHGNFGNSYVSWFAYWGQGTLVTVSSASTKGPSVFPLAPSSKSTSGGTAALGCLVKDYFPEPVTVSWNSGALTSGVHTFPAVLQSSGLYSLSSVVTVPSSSLGTQTYICNVNHKPSNTKVDKKVEPKSCDKTHTCPPCPAPEAAGAPSVFLFPPKPKDTLMISRTPEVTCVVVDVSHEDPEVKFNWYVDGVEVHNAKTKPREEQYNSTYRVVSVLTVLHQDWLNGKEYKCKVSNKALPAPIEKTISKAKGQPREPQVYTLPPCREEMTKNQVSLWCLVKGFYPSDIAVEWESNGQPENNYKTTPPVLDSDGSFFLYSKLTVDKSRWQQGNVFSCSVMHEALHNHYTQKSLSLSPGK light: QAVVTQEPSLTVSPGGTVTLTCRSSTGAVTTSNYANWVQQKPGQAPRGLIGGTNKRAPWTPARFSGSLLGDKAALTLLGAQPEDEAEYFCALWYSNLWVFGGGTKLTVLGQPKAAPSVTLFPPSSEELQANKATLVCLISDFYPGAVTVAWKADSSPVKAGVETTTPSKQSNNKYAASSYLSLTPEQWKSHRSYSCQVTHEGSTVEKTVAPTECS | 46.7 | binds | –
3 | Positive Control (hCLDN2 row) (antibody, human IgG1, kappa, V domains shown, The sheet prints only 'Positive Control'; also called PR005080; Human Claudin-2 Antibody (PR005080)) VH: VKLLQSGAALVPKPGDSMKMSCKASGYTFTHDIIHWVRQSHGKSLEWIGYINPYNGGTNYNEKFKTKATMTVDKPSSTAYLELTRVSSEASAIYYCATGSFDYWGQGVMVTVSS VL: DVVLTQTPGSLSLAIGQSASISCKSSQSLLGTSGKTFLNWILQRPGQSPERLIYQVSKLYSEVPDRFSGSGSETEFTLKISRVEAEDLGVYYCWQGIHFPHTFGAGTKLELKR | – | – | binding result (human CLDN2): binds

More lines, in order of falling EC50 (human CLDN18.2 [1]), values ahead:

Row | EC50 (human CLDN18.2 [1]) [nM] | binding result [6] | Binder | further results
4 | 73.2 | binds | PR007079 (bispecific antibody, human IgG1, lambda, structure 1; CD3 Fab from PR003886, CLDN18.2 VH from PR007243; AAA) EVQLVESGGGLVQPGGSLRLSCAASGFTFSSYWMHWVRQVPGKGLVWVSRISSAGSRTIYADSVKGRFTISRDNAKNTLYLQMNSLRAEDTAVYYCARGEDHDILTGYPIRGQGTTVTVSSGGGGSGGGGSGGGGSEVQLVESGGGLVQPGGSLRLSCAASGFTFSSYWMHWVRQVPGKGLVWVSRISSAGSRTIYADSVKGRFTISRDNAKNTLYLQMNSLRAEDTAVYYCARGEDHDILTGYPIRGQGTTVTVSSASEPKSSDKTHTCPPCPAPEAAGAPSVFLFPPKPKDTLMISRTPEVTCVVVDVSHEDPEVKFNWYVDGVEVHNAKTKPREEQYNSTYRVVSVLTVLHQDWLNGKEYKCKVSNKALPAPIEKTISKAKGQPREPQVCTLPPSREEMTKNQVSLSCAVKGFYPSDIAVEWESNGQPENNYKTTPPVLDSDGSFFLVSKLTVDKSRWQQGNVFSCSVMHEALHNHYTQKSLSLSPGK heavy: EVQLVESGGGLVQPGGSLKLSCAASGFTFSTYAMNWVRQASGKGLEWVGRIRSKYNNYATYYADSVKDRFTISRDDSKNTAYLQMNSLKTEDTAVYYCTRHGNFGNSYVSWFAYWGQGTLVTVSSASTKGPSVFPLAPSSKSTSGGTAALGCLVKDYFPEPVTVSWNSGALTSGVHTFPAVLQSSGLYSLSSVVTVPSSSLGTQTYICNVNHKPSNTKVDKKVEPKSCDKTHTCPPCPAPEAAGAPSVFLFPPKPKDTLMISRTPEVTCVVVDVSHEDPEVKFNWYVDGVEVHNAKTKPREEQYNSTYRVVSVLTVLHQDWLNGKEYKCKVSNKALPAPIEKTISKAKGQPREPQVYTLPPCREEMTKNQVSLWCLVKGFYPSDIAVEWESNGQPENNYKTTPPVLDSDGSFFLYSKLTVDKSRWQQGNVFSCSVMHEALHNHYTQKSLSLSPGK light: QAVVTQEPSLTVSPGGTVTLTCRSSTGAVTTSNYANWVQQKPGQAPRGLIGGTNKRAPWTPARFSGSLLGDKAALTLLGAQPEDEAEYFCALWYSNLWVFGGGTKLTVLGQPKAAPSVTLFPPSSEELQANKATLVCLISDFYPGAVTVAWKADSSPVKAGVETTTPSKQSNNKYAASSYLSLTPEQWKSHRSYSCQVTHEGSTVEKTVAPTECS | –
5 | 19.4 | – | PR005398 (bispecific antibody, human IgG1, lambda, L234A L235A, structure 1; CD3 Fab from PR003886, CLDN18.2 VH from PR007242; LALA) EVQLVESGGGLVQPGGSLRLSCAASGFTFSSYWMHWVRQVPGKGLVWVSRINFDSSRTIYADSVKGRFTISRDNAKNTLYLQMNSLRAEDTAVYYCARGEDHDILTGYPIRGQGTTVTVSSGGGGSGGGGSGGGGSEVQLVESGGGLVQPGGSLRLSCAASGFTFSSYWMHWVRQVPGKGLVWVSRINFDSSRTIYADSVKGRFTISRDNAKNTLYLQMNSLRAEDTAVYYCARGEDHDILTGYPIRGQGTTVTVSSASEPKSSDKTHTCPPCPAPEAAGGPSVFLFPPKPKDTLMISRTPEVTCVVVDVSHEDPEVKFNWYVDGVEVHNAKTKPREEQYNSTYRVVSVLTVLHQDWLNGKEYKCKVSNKALPAPIEKTISKAKGQPREPQVCTLPPSREEMTKNQVSLSCAVKGFYPSDIAVEWESNGQPENNYKTTPPVLDSDGSFFLVSKLTVDKSRWQQGNVFSCSVMHEALHNHYTQKSLSLSPGK heavy: not shown light: QAVVTQEPSLTVSPGGTVTLTCRSSTGAVTTSNYANWVQQKPGQAPRGLIGGTNKRAPWTPARFSGSLLGDKAALTLLGAQPEDEAEYFCALWYSNLWVFGGGTKLTVLGQPKAAPSVTLFPPSSEELQANKATLVCLISDFYPGAVTVAWKADSSPVKAGVETTTPSKQSNNKYAASSYLSLTPEQWKSHRSYSCQVTHEGSTVEKTVAPTECS | TDCC, Titer EC50 (pM), SNU620 [2]: 18.3 pM; TDCC, Titer EC50 (pM), NUGC4_D8 (human CLDN18.2 [3]): 9 pM; binding result [4]: binds; EC50 (human CLDN18.2 [5]): 20.4 nM
